This passage reports koff and Ka results from patent US20060183195A1.

Assay [1] has as its target recombinant soluble human CD4 (human) (UniProt P01730). The assay can be described thus: SPR, sCD4 amine-coupled to sensor chip, antibody flowed over. (SPR reads the build-up and loss of mass on a sensor chip optically.)
In assay [2] the target is native human CD4 on the cell surface (human) (UniProt P01730). Put plainly: flow cytometry, serial dilutions on SupT1 cells, half-maximal fluorescence. On the technique in general: Flow cytometry measures light scatter and fluorescence of single cells or particles in a stream.

Broadly, the koff is a measure of how fast the partners let go of each other. As to Leu3a (antibody), the koff in assay [1] came to 4.2e-05 s⁻¹.

As for chimeric Leu3a (antibody), the Ka in assay [2] was 5e+09 M⁻¹.
